How the values were obtained:
primary human mast cells [1] = assay: Mast cell apoptosis (Caspase-Glo 3/7); format: cell-based; conditions: 0.05-100 nM, 1.6 nM rhSCF, 48 h
Protocol: Primary human mast cells were cultured from peripheral human blood according to the methods described by Saito et al., Nature Protocols 2006; 1(4):2178-2183. […] Following 30 min incubation at RT, luminescence was recorded on the BioTek Synergy plate reader (BioTek, Winooski, Vt.).

[2] = test system: Mo7e cells (SCF-dependent); assay: Mo7e proliferation assay in presence of SCF; format: cell-based, human; conditions: 10 ng/ml SCF, 5 days
Protocol: (§1) To evaluate the potential antagonistic properties of the naked antibodies and the ability of the antibody drug conjugates (ADCs) to inhibit the proliferation of a cKIT-expressing cell line, MO7e (DSMZ, Catalog # ACC-104, Braunschweig, Del.) were grown in the presence or absence of cKIT ligand, Stem Cell Factor (SCF), for survival. MO7e cells were grown in either 10 ng/ml human granulocyte-macrophage colony-stimulating factor GM-CSF (R&D Systems Cat#215-GM, Minneapolis, Minn.) or 10 ng/ml human Stem Cell Factor SCF (R&D Systems Cat#255-SC) prior to seeding in 96 well plates (Costar Cat #3904, Corning, Tewksbury, Mass.) at 5000 cells/well in 100 μl dilution medium. A duplicate plate was generated for a day 0 measurement and all plates were incubated in a tissue culture incubator at 37° C. with 5% CO2 overnight. […] Assay plates were shaken gently for 20 min and the resulting luminescence intensity was measured using a Perkin Elmer 1450 Microbeta TriLux® plate reader (Perkin Elmer, Waltham, Mass.). […] Following this incubation period, relative cell viability was determined via the addition of Cell titer Glo reagent as described above. The effect of the ADCs on cell proliferation was calculated using the average of the duplicates as follows: (% Inhibition=(ADC or Ab treated)/(untreated)*100) The % inhibition data was fitted to a 4-parameter logistic equation and IC50 values were determined.

primary human mast cells [3] = assay: Mast cell degranulation (β-hexosaminidase release); format: cell-based; conditions: 0.05-100 nM, 90 min
Protocol: Primary human mast cells were cultured from peripheral human blood according to the methods described by Saito et al., (supra). […] Cells were then centrifuged and the supernatants were transferred into 96-well black-walled plates prior to the addition of the β-hexosaminidase substrate. Following 90 min incubation at 37° C., the reaction was stopped by the addition of tris-base (Sigma, Cat # T1503-500G, pH 12, St. Louis, Mo.) and the fluorescence intensity was recorded on the Envision® plate reader.

[4] = test system: cKIT phosphorylation in Mo7e and GIST T-1 cells; assay: Western blot for agonistic properties (15 minutes treatment); format: cell-based, human; conditions: 5 ug/ml
Protocol: To evaluate the potential agonistic properties of cKIT ADCs, 2×10^6 of GIST T-1 (kindly provided by Dr. Takahiro Taguchi, Kochi U., Japan) or Mo7e (DSMZ, ACC-104) cells were serum starved overnight at 37° C. with 5% CO2 (DMEM for GIST T-1 and RPMI for Mo7e supplemented with 0.1% FBS) in 6-well plate (NUNC catalog #14067). […] One well was designated as untreated (UT). Cells were harvested in 1 ml PBS. […] Lysates were then spun down for 40 mins at 12,000 rpm at 4° C. 20 μg of each sample was boiled for 10 min at 75° C. and loaded on a 12-well NuPAGEO 4-12% Bis-Tris gel (Life Technologies, NP0322BOX, Carlsbad, Calif.). After protein transfer to membrane blots, membranes were blocked in TBST-5% milk at room temperature for 1 hour and then probed with primary antibodies overnight at 4° C. Blots were washed in TBST (4×5 mins) on the next day. Blots were incubated in the secondary antibody (goat-anti rabbit-HRP 1:30,000, Santa Cruz) for 1 hr at room temperature. Blots were washed in TBST (4×5 mins) and developed. […]

Mo7e cells = assay: Mo7e proliferation assay with GM-CSF (SCF-independent); format: cell-based, human; conditions: 10 ng/ml GM-CSF, 5 days
Protocol: as §1

B1: NEG085: anti-cKIT antibody of Table 1; VH SEQ ID NO 82, VL SEQ ID NO 91; derived from 9P3 (antibody, V domains shown)
VH: EVQLVESGGGLVQPGGSLRLSCAASGFAFSGYYMAWVRQAPGKGLEWVANINYPGSSTYYLDSVKGRFTISRDNAKNSLYLQMNSLRAEDTAVYYCARGDYYGTTYWYFDVWGQGTTVTVSS
VL: DIQMTQSPSSLSASVGDRVTITCRASQSISSYLNWYQQKPGKAPKLLIYYTSRLQSGVPSRFSGSGSGTDFTLTISSLQPEDFATYYCQQGRRLWSFGGGTKVEIK
Primary human mast cells [1]
  mast cell apoptosis: do not lead to apoptosis of human primary mast cells ex vivo
[2]
  inhibition of cell proliferation: do not have this effect
Primary human mast cells [3]
  mast cell degranulation: do not induce mast cell degranulation of human primary mast cells ex vivo
[4]
  downstream signaling (phospho ERK, phospho AKT): downstream signaling pathways are not affected
[4]; absence of ligand (SCF)
  phosphorylation of cKIT: can mediate phosphorylation of cKIT in the absence of ligand (SCF)
Mo7e cells
  effect on cell proliferation: no detrimental effect on cell proliferation

— patent publication US10117953B2, “Antibody drug conjugates” (Novartis AG, priority 2013, dated 2018)
